The values that follow come from article PMC6134095.

Test [1] addresses FtsQ (58–276), periplasmic domain of E. coli FtsQ (Escherichia coli strain K-12) (UniProt P06136). The experiment in a line: SPR; FtsQ (58–276) immobilised on a CM5 chip by amide coupling (~1,000 RU); Biacore T200, 20°C; 10 mM HEPES pH 7.4, 150 mM NaCl, 0.4% glycerol; analytes injected 120 s, 600 s dissociation, 1:2 dilution series, triplicate. On the technique in general: Surface plasmon resonance follows binding to a sensor surface in real time, without labels.

Test [2] concerns the target FITC-labeled FtsB 64–87 peptide (E. coli) (UniProt P0A6S5). The experiment in a line: fluorescence polarisation; 10 nM FITC-labeled FtsB 64–87 peptide, FtsQ in threefold dilutions from 800 µM to 0.5 nM; 10 mM HEPES pH 7.4, 150 mM NaCl, 0.1% Tween 20; 1 h at room temperature. For orientation: Polarisation of emitted light reports the rotation of a fluorescent probe.

FtsQ (58–276), periplasmic domain of E. coli FtsQ (Escherichia coli strain K-12), sequence (P06136 58-276): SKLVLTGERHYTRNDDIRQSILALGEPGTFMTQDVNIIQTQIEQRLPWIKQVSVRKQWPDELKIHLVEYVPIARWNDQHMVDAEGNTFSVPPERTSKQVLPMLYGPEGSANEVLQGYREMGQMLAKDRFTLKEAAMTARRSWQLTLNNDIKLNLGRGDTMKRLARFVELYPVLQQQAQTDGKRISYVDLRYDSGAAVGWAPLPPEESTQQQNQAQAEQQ
FtsN (58–320) plus FtsB (22–103), bound together, sequence (A7ZQJ2 22-103): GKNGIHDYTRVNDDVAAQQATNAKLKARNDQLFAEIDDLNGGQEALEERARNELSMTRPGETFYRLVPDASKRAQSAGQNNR
FtsN (58–320) plus FtsB (22–103), bound together, sequence (P29131 57-319): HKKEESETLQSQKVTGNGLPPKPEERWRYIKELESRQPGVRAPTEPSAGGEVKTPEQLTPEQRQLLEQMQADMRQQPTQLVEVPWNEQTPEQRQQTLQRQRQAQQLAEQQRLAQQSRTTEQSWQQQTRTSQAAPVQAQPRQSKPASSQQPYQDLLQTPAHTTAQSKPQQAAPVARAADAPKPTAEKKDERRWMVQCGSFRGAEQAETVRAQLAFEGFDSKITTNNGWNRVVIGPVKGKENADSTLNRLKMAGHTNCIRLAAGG
FtsN (57–319), periplasmic domain of E. coli FtsN, sequence (P29131 57-319): as above

In turn, “FtsB F84A (from UniProt P0A6S5 22-103) (domain or fragment)” yielded a fold reduction of binding against wild-type FtsB in test [1] of 10 fold.

In test [1], “FtsB R72A (from UniProt P0A6S5 22-103) (domain or fragment)” displayed a fold reduction of binding against wild-type FtsB of 10 fold. For the substance “FtsN (57–319), periplasmic domain of E. coli FtsN (from UniProt P29131 57-319) (domain or fragment)”, the Kd in test [1] amounted to 2500 nM.

In test [1], “FtsN (58–320) plus FtsB (22–103), bound together (from UniProt P0A6S5 22-103; P29131 57-319)” had a Kd of FtsB and FtsN bound together of 120 nM. For the substance “FtsQ (58–276), periplasmic domain of E. coli FtsQ (from UniProt P06136 58-276) (domain or fragment)”, the Kd in test [2] turned out to be 9500 nM.

As usually defined, the Kd is the concentration at which binding is half-saturated. Lower therefore signals tighter binding.
